In patent US20220332803A1 (SIEMENS HEALTHCARE DIAGNOSTICS, published 2022):
One block for each binder: values may come before it. Square brackets hold non-standard residues; d marks the D form. Ends that are not written are not given here. Nle = CCCC[C@H](N)C(=O)O

Tests used:
[1] = biological target: T1, recombinant yeast-produced non-glycosylated pig TCN1 protein (Lifespan Biosciences, LS-G23154) (Sus scrofa, UniProt P17630 26-417); experiment: SPR (Biacore T200); reference is the same mAb on native Hog R-protein
T1 construct: Bought protein, Mw 46.3 kDa, non-glycosylated; also called rec Pig TCN1; recombinant Pig TCN1
T1 sequence: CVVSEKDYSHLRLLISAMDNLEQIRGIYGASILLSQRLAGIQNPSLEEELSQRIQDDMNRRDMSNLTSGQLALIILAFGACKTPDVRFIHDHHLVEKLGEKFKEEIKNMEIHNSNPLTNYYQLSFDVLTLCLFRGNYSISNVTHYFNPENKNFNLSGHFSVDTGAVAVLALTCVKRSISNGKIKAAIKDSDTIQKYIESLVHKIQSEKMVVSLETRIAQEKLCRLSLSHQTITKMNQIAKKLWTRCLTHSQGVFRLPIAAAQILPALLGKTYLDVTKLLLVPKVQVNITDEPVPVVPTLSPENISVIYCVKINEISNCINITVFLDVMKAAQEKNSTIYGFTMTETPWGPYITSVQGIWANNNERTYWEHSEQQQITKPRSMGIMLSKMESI
Protocol: (§1) The binding parameters of the interaction between the anti-Hog TCN1 monoclonal antibodies and the TCN1 protein were determined in kinetics experiments using Biacore T200 equipped with Biacore T200 Control Software Version 2.0.1 (GE Healthcare Bio-Sciences, Pittsburgh, Pa.). Anti-Hog TCN1 mAbs were immobilized at 700-5,000 RU density on the carboxymethyl dextran surface in flow cells 2, 3, and 4 of the CM5 sensor chip using amino-coupling chemistry. Control antibody was immobilized in flow cell 1 for bulk effects subtraction. Recombinant Pig TCN1 (LifeSpan BioSciences, LS-G23154, Seattle, Wash.) or native Hog R-protein were injected over the surfaces with immobilized mAbs during 8 minutes at a 30 μL/min flow rate followed by 20 minutes of dissociation. The buffer blanks were run in triplicate by injection of running buffer (10 mM HEPES, 150 mM NaCl, 0.05% P-20, pH 7.4) and used to double-reference the mAb-binding data before fitting. After each cycle of binding, the surface was regenerated by two consecutive injections of 10 mM Glycine, pH 2.0 and 0.1 M Sodium Bicarbonate, pH 8.5 for 30 seconds each at a 30 μL/min flow rate. Kinetic data were collected over 25-1600 nM antigen concentrations and globally fitted to a simple 1:1 interaction model. […]

Hog Intrinsic Factor [2] = biological target: T2, Hog Intrinsic Factor (Sus scrofa); experiment: ELISA, single point, hybridoma supernatant on plate coated with Hog Intrinsic Factor, OD 650 nm
T2 construct: The source of the HIF sample used in the ELISAs is not described; also called HIF; Intrinsic Factor from Sus scrofa
T2 chain: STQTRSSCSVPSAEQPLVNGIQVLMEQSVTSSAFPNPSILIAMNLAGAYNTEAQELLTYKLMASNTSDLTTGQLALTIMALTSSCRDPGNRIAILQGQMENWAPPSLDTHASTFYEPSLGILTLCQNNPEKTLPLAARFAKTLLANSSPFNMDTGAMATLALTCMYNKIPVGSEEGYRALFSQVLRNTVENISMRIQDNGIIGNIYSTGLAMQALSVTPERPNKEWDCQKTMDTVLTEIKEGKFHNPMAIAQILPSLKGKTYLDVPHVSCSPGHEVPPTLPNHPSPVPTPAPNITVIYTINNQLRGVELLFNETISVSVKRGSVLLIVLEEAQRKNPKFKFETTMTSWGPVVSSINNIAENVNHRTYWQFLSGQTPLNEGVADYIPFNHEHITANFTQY
Protocol: One week after the last injection, the mice were bled, and the serum samples were tested for peptide-specific antibodies in an ELISA assay with corresponding ovalbumin conjugates and free peptides. All ELISA steps were performed at room temperature. Nunc Maxi-Sorp™ flat-bottom ELISA plates were coated with peptide or peptide-OVA conjugate at 2 and 1 μg/mL in PBS, respectively, at 50 μl per well for 1 hour. The plates were flicked dry, and the remaining binding sites were blocked by adding 200 μl per well of blocking solution (0.5% Casein in PBS containing 0.05% Tween 20) for 1 hour. Plates were washed three times with Milli-Q water containing 0.05% Tween 20, and antibody samples to be tested (serum, hybridoma supernatant, or mAb dilutions in PBS) were placed in the wells of the plates at volume 50 μl per well. After incubation for one hour, the plates were washed again as described above, and goat anti-mouse IgG-HRP conjugate diluted 1:3,000 in blocking solution was added at 50 μl per well for 1 hour. The plates were washed, and TMB substrate (Moss, Pasadena, Md.) was added at 100 μl per well for 15 minutes. Optical density of the samples at 650 nm was measured using an ELISA plate reader.
Mice received prefusion boosts on three consecutive days with the same immunogen (10 μg/dose/animal in PBS, IP), and on the fourth day, mouse spleens were harvested and frozen. Several years later, when recombinant Pig TCN1 protein became commercially available, thawed immune splenocytes were used for hybridoma preparation according to the standard procedure described above in Example 1. Hybridoma supernatants were screened for binding both rec Pig TCN1 (LifeSpan BioSciences, LS-G23154, Seattle, Wash.) and partially purified native Hog-R-protein adsorbed on ELISA plates at 1 μg/mL in 50 μl volume per well. Several hybridomas giving positive signals on both antigens were selected. […] No cross-reactivity of the monoclonal antibodies with Hog Intrinsic Factor was observed. The hybridomas were sub-cloned by limiting dilution, expanded, and frozen.

[3] = biological target: T3, native Hog R-protein (glycosylated Hog TCN1 purified from crude powdered extract of hog gastric mucosa) (Sus scrofa, UniProt P17630 26-417, glycosylated, up to about 50% w/w carbohydrates); experiment: SPR (Biacore T200), mAb immobilised on CM5 chip, antigen injected at 25-1600 nM, 1:1 fit
T3 construct: Mw about 70-92 kDa; The native preparation used for Biacore is not described further; also called native Hog TCN1; partially purified native Hog R-protein
T3 sequence: T1 sequence
Protocol: (§2) The binding parameters of the interaction between the anti-Hog TCN1 monoclonal antibodies and the TCN1 protein were determined in kinetics experiments using Biacore T200 equipped with Biacore T200 Control Software Version 2.0.1 (GE Healthcare Bio-Sciences, Pittsburgh, Pa.). Anti-Hog TCN1 mAbs were immobilized at 700-5,000 RU density on the carboxymethyl dextran surface in flow cells 2, 3, and 4 of the CM5 sensor chip using amino-coupling chemistry. Control antibody was immobilized in flow cell 1 for bulk effects subtraction. Recombinant Pig TCN1 (LifeSpan BioSciences, LS-G23154, Seattle, Wash.) or native Hog R-protein were injected over the surfaces with immobilized mAbs during 8 minutes at a 30 μL/min flow rate followed by 20 minutes of dissociation. The buffer blanks were run in triplicate by injection of running buffer (10 mM HEPES, 150 mM NaCl, 0.05% P-20, pH 7.4) and used to double-reference the mAb-binding data before fitting. After each cycle of binding, the surface was regenerated by two consecutive injections of 10 mM Glycine, pH 2.0 and 0.1 M Sodium Bicarbonate, pH 8.5 for 30 seconds each at a 30 μL/min flow rate. Kinetic data were collected over 25-1600 nM antigen concentrations and globally fitted to a simple 1:1 interaction model. Biacore T200 Evaluation Software Version 3.0 (GE Healthcare Bio-Sciences) was used to determine the binding parameters of the Hog TCN1 specific mAbs interaction. Kinetic parameters of the binding of the anti-Hog TCN1 monoclonal antibodies with rec Pig TCN1 and native Hog R-protein are presented in Table 5.

[4] = biological target: T1, recombinant yeast-produced …; experiment: SPR (Biacore T200), mAb immobilised on CM5 chip, antigen injected at 25-1600 nM, 1:1 fit; rec TCN1 protein (non-glycosylated, yeast-produced)
Protocol: as §1

[5] = biological target: T3, native Hog R-protein (glycosylated Hog …); experiment: SPR (Biacore T200), mAb immobilised on CM5 chip, antigen injected at 25-1600 nM, 1:1 fit; native Hog R-protein (heavily glycosylated)
Protocol: as §1

[6] = biological target: T1, recombinant yeast-produced …; experiment: SPR (Biacore T200), mAb immobilised on CM5 chip, antigen injected at 25-1600 nM, 1:1 fit
Protocol: as §2

[7] = biological target: T4, R2 peptide (Hog TCN1 Peptide 80-89) (Sus scrofa); experiment: ELISA, antigen titrated on the plate (2-fold from 8 µg/mL), mAb at 1 µg/mL, goat anti-mouse IgG-HRP, OD 650 nm
T4 construct: Synthetic peptide QDDXNRRDXS, X = norleucine; also called synthetic R2 peptide
T4 peptide: QDD[Nle]NRRD[Nle]S
Protocol: (§3) Purified mAbs were tested in an ELISA assay for binding to corresponding peptide, partially purified native Hog-R-protein, and recombinant Pig TCN1 (Lifespan BioSciences, LS-G23154, Seattle, Wash.), and Hog Intrinsic Factor. For this purpose, 2-fold dilution of the antigens starting from 8 μg/mL in PBS were placed in the wells of ELISA plates at 50 μl per well for 1 hour at room temperature. The plates were flicked dry, blocked with 200 μl per well of blocking solution, and washed three times as described above. Monoclonal antibodies to Hog TCN1 peptides at 1 μg/mL in PBS were added at 50 μl per well. After 1-hour incubation, the plates were washed again, and goat anti-mouse IgG-HRP conjugate diluted 1:3,000 in blocking solution was added at 50 μl per well for 1 hour. The plates were washed, and TMB substrate (Moss, Pasadena, Md.) was added at 100 μl per well for 15 minutes. Plates were read at 650 nm using an ELISA plate reader.

Hog Intrinsic Factor [8] = biological target: T2, Hog Intrinsic Factor; experiment: ELISA, antigen titrated on the plate, mAb at 1 µg/mL, goat anti-mouse IgG-HRP, OD 650 nm
Protocol: as §3

fold higher affinity than to native Hog R-protein [1]: > 500 fold | binding result (Hog Intrinsic Factor [2]): no binding | koff [3]: 0.00069 s⁻¹ | kon [3]: 4830 M⁻¹ s⁻¹ | kon [4]: 50600 M⁻¹ s⁻¹ | Kd [5]: 143 nM
B1: 171J 9G7 monoclonal antibody (antibody, mouse IgG1, V domains shown)
VH: EVQLQQSGAELVKPGASVKLSCTGSGFNIEDIYIHWVKQRPEQGLEWIGRMDPANGDTVYASKFQGKATMTADTSSNTAYMQLSSLTSGDTAVYYCARVFDYWGQGTSLTVSS
VL: DVVMTQTPLSLPVSLGDQASISCRSSQNLVHSNGYTYLHWYLQKPGQSPKLLIYKVSNRFSGVPDRFSGSGSGTDFTLKISRVEAEDLGVYFCSQNTHVPYTFGGGTKLEIK
notes: Mouse IgG1, kappa, from a hybridoma (immunogen partially purified native Hog R-protein)

binding result (Hog Intrinsic Factor [2]): no binding | Kd [6]: 2.6 nM | koff [6]: 6.81e-05 s⁻¹ | kon [6]: 26000 M⁻¹ s⁻¹
B2: 171J 3A6 monoclonal antibody (antibody, mouse IgG2b, V domains shown)
VH: QVQLQQPGAELVRPGALVKLSCKASGYTFTRYWIQWVKQRPGQGLEWIGNISPNSGSVNYSEKFKGKATLTVDKPSSTAYMQLNSLTSEDSAAYYCVRSGGDYFDYWGQGTTLTVSS
VL: DVLMTQTPLSLPVSLGVQASISCRSSQSILHANGNTYLEWYLQKPGQSPKLLIYKVSNRFSGVPDRFSGSGSGTDFTLYISRVEAEDLGVYYCFQGSHLPWTFGGGTKLEIK
notes: Mouse IgG2b, kappa, from a hybridoma (immunogen partially purified native Hog R-protein)

binding result (Hog Intrinsic Factor [2]): no binding | Kd [6]: 2.3 nM | koff [6]: 0.000165 s⁻¹ | kon [6]: 71500 M⁻¹ s⁻¹
B3: 171J 3F1 monoclonal antibody (antibody, mouse IgG1, V domains shown)
VH: EVQLQQSGPELLKPGVSVMISCRASGYTFTDYTMHWVKQSHGESLEWIGGIIPKSGTSNYNEKFKDKATLTVDKSSSTSYMELRSLTSEDSAVYYCARNYYDGGSYYFDYWGQGTTLTVSS
VL: DIQMTQSPASLSASVGETVTITCRTSGNIHNFLTWFQQKQGKSPQLLVYSAETLADGVPSRFSGSGSGTQFSLRINSLQPEDFGSYFCQHFWNTPFTFGSGTKLEMK
notes: as for B1

The remaining lines, values behind:

B4: 171B 1G5 monoclonal antibody (antibody, V domains shown)
VH: EVQLQESGPSLVKPSQTLSLTCSVTGDSITSDYWNWIRKFPGNKLEYMGYISYSGNTYYIPSLKSRISITRDTSKNQYYLQLNSVTSEDTATYYCARYDYDVYFSLDYWGQGTSVTVSS
VL: DVVMTQTPLSLPVSLGDQASISCRSSQSLVHSNRNTYLHWYLQRPGQSPKLLVYKVSNRFSGVPDRFSGSGSGTDFTLKISRVEAEDLGVYFCSQSTHVPLTFGAGTKLELKR
Kd [6]: 72.3 nM | koff [6]: 0.0047 s⁻¹ | kon [6]: 65000 M⁻¹ s⁻¹ | binding result [7]: binds | binding result (Hog Intrinsic Factor [8]): no binding

B5: 171J 5H12 monoclonal antibody (antibody, mouse IgG1, V domains shown)
VH: QVQLQQSGAELVKPGASVKISCKASGYAFSSSWMNWVKQRPGKGLEWIGQIYPGDGDTNYNGKFKDKATLTADKSSNTAYMQLSSLTSEDSAVYFCARVNWDAFSYIDVWGTGTTVTVSS
VL: DIKMTQSPSSMYESLGERVTITCRASQDINVYLSWFQQKPGESPKTLIYRADRLVDGVPSRFSGSGSGQDYSLTISSLEYEDVGIYYCLQYDEFPYTFGGGTKLEIK
notes: as for B1
binding result (Hog Intrinsic Factor [2]): no binding | Kd [3]: 0.17 nM | koff [3]: 1.9e-05 s⁻¹ | kon [3]: 115000 M⁻¹ s⁻¹
